Results: patent US20140100172A1
pIC50: −log10 of the molar value.

Experiments:
[1] = biological target: human chemokine receptor type 4 (CXCR4) (human) (UniProt P61073); assay: competition with 125I-CPCR4 tracer on CXCR4-expressing cells
[2] = biological target: human chemokine receptor type 4 (CXCR4) (human) (UniProt P61073); assay: radioligand competition binding; tracer 125I-SDF-1α; CMS5/CXCR4; site (1); set-up: unit not given here
[3] = biological target: human chemokine receptor type 4 (CXCR4) (human) (UniProt P61073); assay: radioligand competition binding; tracer 125I-SDF-1α
[4] = biological target: human chemokine receptor type 4 (CXCR4) (human) (UniProt P61073); assay: radioligand competition binding; tracer 125I-CPCR4
[5] = biological target: human chemokine receptor type 4 (CXCR4) (human) (UniProt P61073); assay: radioligand competition binding; tracer 125I-CPCR4; CMS5/CXCR4; set-up: unit not given here
[6] = biological target: human chemokine receptor type 4 (CXCR4) (human) (UniProt P61073); assay: radioligand competition binding; tracer 125I-CPCR4; Jurkat; set-up: unit not given here
[7] = biological target: human chemokine receptor type 4 (CXCR4) (human) (UniProt P61073); assay: radioligand competition binding; tracer 125I-SDF-1α; CMS5/CXCR4; site (2); set-up: unit not given here
[8] = biological target: human chemokine receptor type 4 (CXCR4) (human) (UniProt P61073); assay: radioligand competition binding; CMS5/CXCR4 cells
[9] = biological target: human chemokine receptor type 4 (CXCR4) (human) (UniProt P61073); assay: radioligand competition binding; Jurkat cells
[10] = biological target: human chemokine receptor type 4 (CXCR4) (human) (UniProt P61073); assay: radioligand competition binding; tracer 125I-CPCR4; Jurkat; site (2); set-up: unit not given here
[11] = biological target: human chemokine receptor type 4 (CXCR4) (human) (UniProt P61073); assay: radioligand competition binding; tracer 125I-CPCR4; Jurkat; site (1); set-up: unit not given here
[12] = biological target: human chemokine receptor type 4 (CXCR4) (human) (UniProt P61073); assay: radioligand competition binding; tracer 125I-CPCR4; CMS5/CXCR4; site (2); set-up: unit not given here
[13] = biological target: human chemokine receptor type 4 (CXCR4) (human) (UniProt P61073); assay: radioligand competition binding; tracer 125I-CPCR4; CMS5/CXCR4; site (1); set-up: unit not given here

Sequence of human chemokine receptor type 4 (CXCR4) (human) (P61073 whole entry): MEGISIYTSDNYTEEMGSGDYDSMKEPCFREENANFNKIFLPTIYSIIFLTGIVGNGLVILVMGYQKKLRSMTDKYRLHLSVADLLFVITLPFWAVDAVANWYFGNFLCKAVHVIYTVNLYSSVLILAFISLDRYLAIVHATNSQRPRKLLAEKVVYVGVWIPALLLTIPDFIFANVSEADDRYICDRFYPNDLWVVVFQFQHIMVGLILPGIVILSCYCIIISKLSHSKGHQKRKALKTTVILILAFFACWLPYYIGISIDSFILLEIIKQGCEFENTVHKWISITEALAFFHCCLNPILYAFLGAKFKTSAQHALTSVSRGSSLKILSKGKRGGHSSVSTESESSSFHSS

Substance: cyc[D-Tyr-Orn(FB)-Arg-Nal-Gly] (peptide)
- pIC50 [1]: 7.96

Substance: cyc[D-Tyr-(Me)D-Orn(Me, FB)-Arg-Nal-Gly] (peptide)
- pIC50 [1]: 7.23

Substance: CPCR4, cyclo[D-Tyr-Arg-Arg-Nal-Gly]
- IC50 [2]: 0.01 ?
- pIC50 [3]: 8.26
- pIC50 [4]: 8.42
- IC50 [5]: 6.8 ?
- IC50 [6]: 3.7 ?
- IC50 [7]: 6.9 ?

Substance: cyc[D-Tyr-D-Orn(FB)-Arg-Nal-Gly] (peptide)
- pIC50 [1]: 7.07

Substance: cyc[Nal-Gly-D-Tyr-Arg-Orn] (peptide)
- pIC50 [1]: 6.00

Substance: 125I-CPCR4
- pIC50 [8]: 8.19
- pIC50 [9]: 8.40

Substance: cyc[D-Tyr-Orn(Ahx)-Arg-Nal-Gly] (peptide)
- pIC50 [1]: 7.15

Substance: cyc[Nal-Gly-D-Tyr-Orn-Arg] (peptide)
- pIC50 [1]: 8.05

Substance: cyc[D-Tyr-Orn(Bz, FB)-Arg-Nal-Gly] (peptide)
- pIC50 [1]: 7.00

Substance: Iodo-CPCR4
- IC50 [2]: 0.02 ?
- IC50 [10]: 4.6 ?
- IC50 [11]: 0.01 ?
- IC50 [12]: 3.5 ?
- IC50 [13]: 0.01 ?
- IC50 [7]: 8.8 ?
